Experimental findings from publication PMC12547303 are described below.

Substitutions are numbered along the chain they refer to.

The target in one assay is T1, CNNM2-S269P (mouse) (UniProt Q3TWN3).
T1 sequence: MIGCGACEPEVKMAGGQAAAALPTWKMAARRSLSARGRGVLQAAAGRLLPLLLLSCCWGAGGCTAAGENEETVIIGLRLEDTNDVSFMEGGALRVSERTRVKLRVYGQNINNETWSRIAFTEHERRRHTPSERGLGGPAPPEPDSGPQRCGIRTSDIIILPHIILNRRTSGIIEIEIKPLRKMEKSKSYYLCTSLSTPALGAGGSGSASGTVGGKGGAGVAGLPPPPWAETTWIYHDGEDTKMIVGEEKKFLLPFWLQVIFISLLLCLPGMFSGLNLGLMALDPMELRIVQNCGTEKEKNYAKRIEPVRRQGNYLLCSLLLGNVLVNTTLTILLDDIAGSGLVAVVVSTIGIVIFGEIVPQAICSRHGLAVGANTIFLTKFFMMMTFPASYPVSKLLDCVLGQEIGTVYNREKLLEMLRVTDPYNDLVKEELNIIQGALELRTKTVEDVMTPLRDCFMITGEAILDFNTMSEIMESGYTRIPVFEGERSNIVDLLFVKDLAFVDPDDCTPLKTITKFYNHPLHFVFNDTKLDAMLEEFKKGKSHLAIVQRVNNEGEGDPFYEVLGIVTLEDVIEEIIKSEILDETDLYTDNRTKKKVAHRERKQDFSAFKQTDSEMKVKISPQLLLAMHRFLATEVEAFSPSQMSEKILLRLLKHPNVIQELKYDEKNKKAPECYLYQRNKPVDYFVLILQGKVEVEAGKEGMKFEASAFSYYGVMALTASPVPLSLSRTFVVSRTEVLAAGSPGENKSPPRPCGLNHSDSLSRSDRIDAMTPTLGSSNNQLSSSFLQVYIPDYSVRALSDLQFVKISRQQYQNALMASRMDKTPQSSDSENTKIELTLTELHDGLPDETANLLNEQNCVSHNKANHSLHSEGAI

Assay [1] deals with T2, CNNM2-H523K/S269P (mouse) (UniProt Q3TWN3).
T2 sequence: T1 sequence with H523K

Assay [2] addresses T3, FLAG-tagged CNNM2 lacking the CBS-pair domain, CNNM2-ΔCBS(469–578) (mouse) (UniProt Q3TWN3).
T3 sequence: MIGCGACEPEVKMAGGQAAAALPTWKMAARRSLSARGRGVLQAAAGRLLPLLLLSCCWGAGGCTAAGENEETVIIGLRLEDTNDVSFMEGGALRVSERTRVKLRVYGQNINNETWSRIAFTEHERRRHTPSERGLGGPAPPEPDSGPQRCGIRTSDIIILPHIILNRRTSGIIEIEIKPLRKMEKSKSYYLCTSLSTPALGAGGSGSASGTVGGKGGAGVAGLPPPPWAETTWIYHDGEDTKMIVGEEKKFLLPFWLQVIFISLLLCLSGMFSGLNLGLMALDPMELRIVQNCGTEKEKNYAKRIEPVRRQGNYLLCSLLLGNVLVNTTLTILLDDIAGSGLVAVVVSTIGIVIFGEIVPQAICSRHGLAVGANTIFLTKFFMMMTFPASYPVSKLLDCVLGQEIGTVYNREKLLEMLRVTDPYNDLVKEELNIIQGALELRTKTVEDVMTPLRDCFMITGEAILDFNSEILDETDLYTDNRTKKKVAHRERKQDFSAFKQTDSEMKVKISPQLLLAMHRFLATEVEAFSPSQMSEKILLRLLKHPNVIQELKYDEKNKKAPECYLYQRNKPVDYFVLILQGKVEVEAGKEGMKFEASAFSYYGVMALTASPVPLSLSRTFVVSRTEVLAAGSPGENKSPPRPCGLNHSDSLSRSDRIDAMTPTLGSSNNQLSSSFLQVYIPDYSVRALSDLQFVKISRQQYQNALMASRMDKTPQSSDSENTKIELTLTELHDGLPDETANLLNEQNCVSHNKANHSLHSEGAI

B1: Myc-DDK tagged ARL15 (natural protein)
chain: MSDLRITEAFLYMDYLCFRALCCKGPPPARPEYDLVCIGLTGSGKTSLLSKLCSESPDNVVSTTGFSIKAVPFQNAILNVKELGGADNIRKYWSRYYQGSQGVIFVLDSASSEDDLEAARNELHSALQHPQLCTLPFLILANHQDKPAARSVQEIKKYFELEPLARGKRWILQPCSLDDMDALKDSFSQLINLLEEKDHEAVRM
Consider B1, for which the outward TRPM7 current density at +100 mV in 293-M7-ΔCNNM3/4 cells with CNNM2-S269P, without vs with ARL15 (the value is with ARL15); marked reduction in the assay with CNNM2-S269P (mouse) came out at 123. This molecule also yielded an outward TRPM7 current density at +100 mV in 293-M7-ΔCNNM3/4 cells with CNNM2-H523K/S269P, without vs with ARL15 (the value is with ARL15); not different in assay [1] of 294. Moreover, the outward TRPM7 current density at +100 mV in 293-M7-ΔCNNM3/4 cells with CNNM2-ΔCBS, without vs with ARL15 (the value is with ARL15); not different in assay [2] was determined as 330.
